The source of these data is article PMC3634029 (PLoS ONE, 2013).

For the test, the target named is T1, Full-length recombinant FVIII (Kogenate FS) (Homo sapiens, UniProt P00451).
T1 construct: coagulation factor VIII, human, full-length recombinant (Kogenate FS); also called coagulation factor VIII; source: provided by Bayer Healthcare (Kogenate FS), reconstituted and dialyzed into Borate Buffer
As to the kind of experiment: ELISA; FVIII (6.6 nM in PBS) coated; Bo2C11 serially diluted 1:3 from 60 nM; detected by anti-human IgG. The following applies: both partners purified.

T1 sequence (P00451 20-2351): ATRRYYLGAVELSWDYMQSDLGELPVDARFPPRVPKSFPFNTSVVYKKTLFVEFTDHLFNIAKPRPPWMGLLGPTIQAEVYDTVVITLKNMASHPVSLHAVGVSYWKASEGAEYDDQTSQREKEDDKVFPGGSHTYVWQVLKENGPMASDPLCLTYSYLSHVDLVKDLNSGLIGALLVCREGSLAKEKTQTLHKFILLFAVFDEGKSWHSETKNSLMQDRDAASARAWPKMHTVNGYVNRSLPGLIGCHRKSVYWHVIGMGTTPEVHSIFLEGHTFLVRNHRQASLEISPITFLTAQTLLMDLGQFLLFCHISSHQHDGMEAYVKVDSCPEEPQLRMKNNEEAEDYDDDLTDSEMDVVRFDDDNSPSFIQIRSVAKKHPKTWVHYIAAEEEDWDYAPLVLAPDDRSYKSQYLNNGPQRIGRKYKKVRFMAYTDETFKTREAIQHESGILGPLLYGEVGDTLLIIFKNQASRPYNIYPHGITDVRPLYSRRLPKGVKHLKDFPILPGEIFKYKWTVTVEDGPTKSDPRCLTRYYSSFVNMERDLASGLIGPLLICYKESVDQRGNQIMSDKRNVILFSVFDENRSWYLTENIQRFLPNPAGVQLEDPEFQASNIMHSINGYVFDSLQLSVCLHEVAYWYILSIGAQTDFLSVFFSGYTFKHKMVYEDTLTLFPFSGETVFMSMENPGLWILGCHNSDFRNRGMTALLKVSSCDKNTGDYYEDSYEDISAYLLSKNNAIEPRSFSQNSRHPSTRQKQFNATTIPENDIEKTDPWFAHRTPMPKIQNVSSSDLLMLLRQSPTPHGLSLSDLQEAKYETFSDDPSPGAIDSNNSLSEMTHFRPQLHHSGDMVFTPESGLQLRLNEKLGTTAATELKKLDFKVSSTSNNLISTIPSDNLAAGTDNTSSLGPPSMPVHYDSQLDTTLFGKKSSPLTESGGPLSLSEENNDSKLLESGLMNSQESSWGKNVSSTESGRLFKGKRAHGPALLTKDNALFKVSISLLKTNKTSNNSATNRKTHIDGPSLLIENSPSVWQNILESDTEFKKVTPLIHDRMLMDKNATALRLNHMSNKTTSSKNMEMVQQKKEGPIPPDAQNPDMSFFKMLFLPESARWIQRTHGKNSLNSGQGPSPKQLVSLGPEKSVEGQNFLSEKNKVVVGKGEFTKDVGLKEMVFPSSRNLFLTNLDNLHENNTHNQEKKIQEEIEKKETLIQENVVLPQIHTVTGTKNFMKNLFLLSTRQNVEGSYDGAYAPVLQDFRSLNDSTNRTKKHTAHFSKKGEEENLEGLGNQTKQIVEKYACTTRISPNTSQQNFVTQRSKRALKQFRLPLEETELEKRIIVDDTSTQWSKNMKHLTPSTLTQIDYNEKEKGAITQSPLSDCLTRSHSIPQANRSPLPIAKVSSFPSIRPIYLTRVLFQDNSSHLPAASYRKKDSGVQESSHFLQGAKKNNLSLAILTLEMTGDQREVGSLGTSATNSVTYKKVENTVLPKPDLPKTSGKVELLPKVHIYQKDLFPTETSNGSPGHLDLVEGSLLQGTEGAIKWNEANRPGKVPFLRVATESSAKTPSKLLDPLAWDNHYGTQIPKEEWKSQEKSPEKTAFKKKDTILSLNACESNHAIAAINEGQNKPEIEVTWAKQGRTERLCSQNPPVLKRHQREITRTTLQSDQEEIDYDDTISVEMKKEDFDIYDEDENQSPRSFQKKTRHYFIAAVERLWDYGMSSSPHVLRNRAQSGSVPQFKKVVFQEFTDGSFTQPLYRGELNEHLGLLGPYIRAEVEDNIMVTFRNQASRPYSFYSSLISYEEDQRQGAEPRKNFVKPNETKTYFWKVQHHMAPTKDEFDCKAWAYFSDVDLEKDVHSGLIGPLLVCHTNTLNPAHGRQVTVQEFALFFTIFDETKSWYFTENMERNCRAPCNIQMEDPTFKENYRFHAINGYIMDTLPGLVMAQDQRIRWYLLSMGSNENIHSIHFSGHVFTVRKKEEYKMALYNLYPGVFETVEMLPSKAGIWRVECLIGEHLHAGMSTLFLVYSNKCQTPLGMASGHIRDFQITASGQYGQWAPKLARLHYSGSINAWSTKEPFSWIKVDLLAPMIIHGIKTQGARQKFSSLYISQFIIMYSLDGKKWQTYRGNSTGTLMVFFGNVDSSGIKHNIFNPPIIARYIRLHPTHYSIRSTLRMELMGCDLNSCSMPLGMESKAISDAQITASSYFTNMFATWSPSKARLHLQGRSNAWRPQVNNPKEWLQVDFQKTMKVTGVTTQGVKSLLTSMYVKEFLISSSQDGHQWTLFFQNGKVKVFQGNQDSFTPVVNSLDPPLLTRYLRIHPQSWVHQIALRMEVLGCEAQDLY

B1: human monoclonal anti-FVIII antibody Bo2C11 (antibody, V domains shown)
VH: QVQLVQSGAEVKKPGASVKVSCKVSGYTLTELPVHWVGQAPGKGLEWVGSFDPESGESIYAREFQGSVTMTADTSTDIAYMELSSLRSDDTAVYYCAVPDPDAFDIWGQGTMVTVSS
VL: EIALTQSPGTLSLSPGERATLSCRASQSFSSSYLAWYQQKPGQAPRLLIYGASTRATGIPDRFSGSGSGTDFTLTISRLEPEDFAVYYCQKYGTSAITFGQGTRLEIK
In general, EC50 refers to the midpoint of the concentration-response curve. Regarding B1, the concentration for a half-maximal effect (EC50) turned out to be 2.66 nM.
